From paper PMC11172336, “Exploring Syndecan-4 and MLP and Their Interaction in Primary Cardiomyocytes and H9c2 Cells” (Cells, 2024)
Numbering of substitutions follows the chain as printed. Several values for one entry are separate records, joined by “and”; a condition that tells them apart may be missing. Equal entries are not always repeated. Where no end group is shown, it is not given here. The star is where a group is joined. Biotin = O=C1N[C@H]2[C@H](CS[C@H]2CCCCC(=O)*)N1

B1: biotinylated MLP-WT peptide aa 125-154 (peptide)
peptide: not shown
modifications: N-terminal biotin tag
notes: source: synthetic peptide (GenScript, >80% purity)
B2: biotinylated MLP-WT peptide aa 50-79 (peptide, UniProt P50461 50-79, looked up)
peptide: Biotin-AAHESEIYCKVCYGRRYGPKGIGYGQGAGC
modifications: cysteine pairing not given here
notes: Muscle LIM Protein (MLP, CSRP3), human, 30-mer, residues 50-79, covering the end of LIM1 and the NLS; also called MLP peptide aa 50–79; source: synthetic peptide (GenScript, >80% purity)
B3: MLP, endogenous in adult rat primary cardiomyocytes (natural protein, UniProt P50463 1-194, looked up)
chain: MPNWGGGAKCGACDKTVYHAEEIQCNGRSFHKTCFHCMACRKALDSTTVAAHESEIYCKVCYGRKYGPKGIGFGQGAGCLSTDTGEHLGLQFQQSPKPARAATTSNPSKFSAKFGESEKCPRCGKSVYAAEKVMGGGKPWHKTCFPCAICGKSLESTNVTDKDGELYCKVCYAKNFGPTGIGFGGLTHQVEKKE
notes: Muscle LIM Protein (MLP, CSRP3), rat; source: endogenous, enriched subcellular fractions of freshly isolated adult rat LV cardiomyocytes
B4: recombinant 6xHis-MLP Q91L (natural protein, human, UniProt P50461 1-194, looked up)
chain: B3 chain with D14E, K65R, F73Y, Q91L, A101S, A102V, S111T, P146R, H188Q
notes: Muscle LIM Protein (MLP, CSRP3), human, with a patient mutation; source: bought: GenScript (recombinant protein, >80% purity); not shown: His6, N-terminal, kept
B5: recombinant 6xHis-MLP L44P (natural protein, human, UniProt P50461 1-194, looked up)
chain: B3 chain with D14E, L44P, K65R, F73Y, A101S, A102V, S111T, P146R, H188Q
notes: as for B4
B6: recombinant 6xHis-MLP K69R (natural protein, human, UniProt P50461 1-194, looked up)
chain: B3 chain with D14E, K65R, K69R, F73Y, A101S, A102V, S111T, P146R, H188Q
notes: as for B4
B7: recombinant 6xHis-MLP W4R (natural protein, human, UniProt P50461 1-194, looked up)
chain: B3 chain with W4R, D14E, K65R, F73Y, A101S, A102V, S111T, P146R, H188Q
notes: Muscle LIM Protein (MLP, CSRP3), human, with a patient mutation; the eight mutated recombinant proteins are named in the abstract; source: bought: GenScript (recombinant protein, >80% purity); not shown: His6, N-terminal, kept
B8: recombinant 6xHis-MLP Y66C (natural protein, human, UniProt P50461 1-194, looked up)
chain: B3 chain with D14E, K65R, Y66C, F73Y, A101S, A102V, S111T, P146R, H188Q
notes: as for B4
B9: recombinant 6xHis-MLP G72R (natural protein, human, UniProt P50461 1-194, looked up)
chain: B3 chain with D14E, K65R, G72R, F73Y, A101S, A102V, S111T, P146R, H188Q
notes: as for B4
B10: recombinant 6xHis-MLP R64C (natural protein, human, UniProt P50461 1-194, looked up)
chain: B3 chain with D14E, R64C, K65R, F73Y, A101S, A102V, S111T, P146R, H188Q
notes: as for B4
B11: recombinant 6xHis-MLP C58G (natural protein, human, UniProt P50461 1-194, looked up)
chain: B3 chain with D14E, C58G, K65R, F73Y, A101S, A102V, S111T, P146R, H188Q
notes: as for B4
B12: recombinant 6xHis-MLP-WT (natural protein, human, UniProt P50461 1-194, looked up)
chain: B3 chain with D14E, K65R, F73Y, A101S, A102V, S111T, P146R, H188Q
notes: Muscle LIM Protein (MLP), encoded by CSRP3, human, 194 amino acids; on the native blot a mixture of monomer, dimer, trimer and tetramer; also called full-length recombinant 6xHis-MLP-WT protein; Muscle LIM Protein; source: bought: GenScript (recombinant protein, >80% purity); not shown: His6, N-terminal, kept

Assays:
[1] = target: B11; assay: ELISA; wells coated with 10 µg of WT or mutated full-length 6xHis-MLP recombinant protein in PBS; biotinylated overlapping MLP-WT 30-mer peptides at 2–5 µM for two hours at 37 °C; signal of PBS-coated wells subtracted; conditions: both partners purified
recombinant 6xHis-MLP-WT = target: B12; assay: as above; conditions: both partners purified
[2] = target: B5; assay: as above; conditions: both partners purified
[3] = target: the molecule itself; assay: immunoblotting under native conditions; 20 µg of cytoplasmic-, nuclear-, membrane- and cytoskeletal-enriched fractions of adult rat cardiomyocytes in native sample buffer, not boiled, SDS-containing running buffer; blot with C-terminal anti-MLP (#R06991)
[4] = target: the molecule itself; assay: immunoblotting under native conditions; 0.5 µg of recombinant 6xHis-MLP WT or mutated protein in native sample buffer, not boiled, SDS-containing running buffer; blot with C-terminal anti-MLP (#R06991); densitometry

Binder	binding result [4]	further results
B1	–	binding result [1]: binds; binding result (recombinant 6xHis-MLP-WT): binds; binding result [2]: binds
B2	–	binding result [1]: binds; binding result (recombinant 6xHis-MLP-WT): binds
B3	–	stoichiometry N [3]: 2 and 3 and 4
B4	binds	–
B5	binds	–
B6	binds	–
B7	binds	–
B8	binds	–
B9	binds	–
B10	binds	–
B11	binds	–
B12	–	stoichiometry N [4]: 2 and 3 and 4
